We go through 141 substances from the supplement of paper PMC12042874.

± gives the uncertainty stated by the source.

The data set is described as follows: amyloid nucleation score (Sup35N fusion, yeast selection) (log enrichment); library NNK1; higher = more nucleation; inactive = no reads after selection. The method in brief: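 The nucleation score is the DiMSum log enrichment of output over input reads, centred on the mode score of non-aggregating sequences. Only sequences with 100 or more input reads were scored, using Illumina sequencing of input and output plasmid inserts. Psi-negative yeast expressing Sup35N fused to peptides of 20 random codons were induced 24 hours with 100 μM copper sulfate and grown 7 days at 30°C on medium lacking adenine and uracil.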

Substance PSQHSIPLLTQVYVLL displayed an amyloid nucleation score of 5.54 ± 0.059.

For YCKFMLMGNHCFDLFCYSLN, the amyloid nucleation score was 3.96 ± 0.09.

The substance AGLITSDDMAYWIGILFCNL had an amyloid nucleation score of 2.57 ± 0.14.

WVGLSFDDIKIYSASSN registered an amyloid nucleation score of 0.308 ± 0.52.

In turn, NYFEKR showed an amyloid nucleation score of -0.261 ± 0.47.

Take FICQDVNICCSL: the amyloid nucleation score came out at 7.305 ± 0.052.

The substance YNRLKSIV showed an amyloid nucleation score of 1.51 ± 0.72.

ISNGIYISKEGFHEWSNRH had an amyloid nucleation score of 4.18 ± 0.064.

The substance VKVGVCGSVGWLHTGVQSNG yielded an amyloid nucleation score of 0.804 ± 0.3.

In turn, GLKALILNSSSCCRARFGAA gave an amyloid nucleation score of 0.307 ± 0.23.

In turn, SVKNYLCLMTTPFVFVLEM had an amyloid nucleation score of 5.417 ± 0.049.

LGMSKLIMSNNVFNIFDSHP returned an amyloid nucleation score of 0.847 ± 0.9.

With GHPVWRCFSDGSSPLFWDYG, the amyloid nucleation score result is “inactive”.

In turn, FRKEMIFYS had an amyloid nucleation score of 1.54 ± 0.47.

YYSLAVLTSLRARKSTVFND gave an amyloid nucleation score of -1.16 ± 0.78.

The substance YVIRFVKCR gave an amyloid nucleation score of 2.23 ± 0.55.

As for VQKKRLDGLVKRGLYIRAIG, the amyloid nucleation score was 1.2 ± 0.69.

ERPAAYATVTTSCKKTWDL had an amyloid nucleation score of 7.769 ± 0.06.

RDMMMRRWVVSKSEL had an amyloid nucleation score of 0.711 ± 0.72.

Consider RWGGDALNAWHASDSSVGLR, for which the amyloid nucleation score is -1.01 ± 0.73.

Turning to MDLKTY, the amyloid nucleation score is -0.696 ± 0.46.

Regarding CLIRIVKF, the amyloid nucleation score came out at 1.08 ± 0.7.

Take FAEENTSKFFSRKGEVCYMF: the amyloid nucleation score was -0.113 ± 0.9.

As for GVSVSYLDGGMAWPNEGGRK, the amyloid nucleation score is 0.19 ± 0.62.

QIRLYSSGWMFGCAAYVVSM: the amyloid nucleation score is 0.853 ± 0.41.

STRGHNMTEINVWMVHNILT yielded an amyloid nucleation score of -0.116 ± 1.4.

Consider INDYMLYGVLAYILGHGTVQ, for which the amyloid nucleation score turned out to be 0.622 ± 0.49.

NACFRYKAKMDRMSTRGANS showed an amyloid nucleation score of 1.88 ± 0.39.

With FPCALSYAGMVSTVRALRKF, the amyloid nucleation score worked out at 0.228 ± 0.8.

HHGRFRCKAVCRRKCGLVQV: the amyloid nucleation score result was “inactive”.

DMEKVV returned an amyloid nucleation score of 0.408 ± 0.6.

With TFAVLRNSGFM, the amyloid nucleation score stood at 0.529 ± 0.84.

Substance RSALVLVYGLTACLNGLGMC yielded an amyloid nucleation score of 3.04 ± 0.097.

ADRKSFLQSCGLCE displayed an amyloid nucleation score of -0.661 ± 0.32.

VSNSWAWPFRRNCGSECWFT yielded an amyloid nucleation score of 0.228 ± 0.33.

On to LVWLY, for which the amyloid nucleation score turned out to be 0.493 ± 0.68.

In turn, FLINGISSLCGLVVGLKFMD came in with an amyloid nucleation score of 0.755 ± 0.34.

Turning to YFVMITCFYVILL, the amyloid nucleation score was -0.126 ± 0.2.

In turn, NMVSLMVDSELTFVSLICLE displayed an amyloid nucleation score of 3.18 ± 0.064.

Substance NLLLIMDFVGWV registered an amyloid nucleation score of 1.48 ± 0.56.

Consider PVMLF, for which the amyloid nucleation score stood at 4.33 ± 0.11.

The substance SPWFAHITPRVIMEERH registered an amyloid nucleation score of -1.18 ± 0.79.

On to GILFWSGL, for which the amyloid nucleation score worked out at 1.07 ± 0.66.

As to TFVDGGSFSENVVVMIRFYH, the amyloid nucleation score worked out at 4.99 ± 0.064.

The substance CRASYGFHVQRDALDR came in with an amyloid nucleation score of -0.438 ± 0.75.

In the case of SMVYAYAAIILGWWNWGRGC, the amyloid nucleation score was 0.003 ± 1.1.

In turn, IPTFSKIGKLFYVCGAEFSD had an amyloid nucleation score of -0.355 ± 0.88.

On to IKIRAICVCMFDSQEGLGET, for which the amyloid nucleation score was determined as 0.601 ± 0.43.

As for YGMAF, the amyloid nucleation score was -1.71 ± 2.4.

The substance NCGTVHGHADGSYVCDMGSR came in with an amyloid nucleation score of -0.022 ± 0.98.

NSCWRTGLQVPVSQHYNQTI registered an amyloid nucleation score of -0.492 ± 0.61.

Substance TICNEINQFKAK displayed an amyloid nucleation score of 0.35 ± 0.59.

RAAALRRKRDD registered an amyloid nucleation score of 0.203 ± 0.42.

With DAMWEMRVTTVRALARVCVC, the amyloid nucleation score was 0.236 ± 1.1.

Substance ETRTHWVRLAANNNFH registered an amyloid nucleation score of 0.135 ± 0.88.

CSLLSYK returned an amyloid nucleation score of -1.63 ± 2.7.

Consider RHDALLSGLYHCRCNQLNVC, for which the amyloid nucleation score is 4.2 ± 0.074.

As for DSLLWVMKYSMVSFYMCDYR, the amyloid nucleation score is -0.668 ± 0.97.

Regarding MPYLNGHYRH, the amyloid nucleation score result is “inactive”.

For the substance RGSCMIVGKACS, the amyloid nucleation score is -0.37 ± 0.33.

In turn, AYEGKGITGHLIFSWKSKSL had an amyloid nucleation score of 1.55 ± 0.13.

As to SQMAVYRPHLLVSSFMFTRS, the amyloid nucleation score stood at 0.274 ± 0.57.

VCKMSTLVDDWRGSARPHRL: the amyloid nucleation score turned out to be 0.782 ± 0.37.

As to MNEERVGNLIFCRDSFMSSW, the amyloid nucleation score was -0.096 ± 0.97.

In turn, SRAWWVKEFRGVKEVIQVRF returned an amyloid nucleation score of 0.488 ± 0.56.

LEGLRQDEVGRSASKTVKYS displayed an amyloid nucleation score of 1.18 ± 0.76.

As to CRSHRGHMCSLVSYLAHGSS, the amyloid nucleation score entry is “inactive”.

As for WIMRS, the amyloid nucleation score entry was “inactive”.

In turn, KKSYCYPFPFFSYV had an amyloid nucleation score of 0.423 ± 0.65.

Take YYLSLGLKLMSMVPVKSTY: the amyloid nucleation score entry is “inactive”.

For KLQIPLGQVSLGSKVMKTGV, the amyloid nucleation score is -1.08 ± 2.4.

For VDLTLPASAVGNELCAREVG, the amyloid nucleation score came out at 0.155 ± 0.34.

Regarding CLGHISVMNVTASNANYHFS, the amyloid nucleation score was determined as 7.237 ± 0.053.

The substance TCFSSILKDMVWRNRRRWGY showed an amyloid nucleation score of 0.216 ± 0.84.

GWIVAMRKR gave an amyloid nucleation score of 0.236 ± 1.6.

For REITCR, the amyloid nucleation score is -0.24 ± 0.26.

FGREPIRIKTYQSLKNRSLI had an amyloid nucleation score of -0.013 ± 0.24.

For the substance MIVDNHWHECYSRAS, the amyloid nucleation score was -1.76 ± 1.4.

On to YFAYQDILVNDTIRIL, for which the amyloid nucleation score stood at 0.063 ± 0.56.

In turn, GSTENTVYRRGEFGELVWKC gave an amyloid nucleation score of -0.311 ± 0.44.

In turn, HSRRCYNESS returned an amyloid nucleation score of 1.7 ± 0.55.

FFAIVGRKVCRGSIHFWSIT gave an amyloid nucleation score of 1.23 ± 0.61.

YVAISHGQTPSLYL displayed an amyloid nucleation score of -0.827 ± 1.5.

As for ACLGVTRGYSGPSTTKSFLR, the amyloid nucleation score is -0.238 ± 0.46.

Consider IFHSAVQTNLSGGCRAGVWL, for which the amyloid nucleation score came to 0.254 ± 0.83.

Turning to TLNHRSLCFSSVDILWVWII, the amyloid nucleation score is -0.533 ± 0.9.

In turn, YVIMWGGLTLYLWGCRKWWE gave an amyloid nucleation score of -0.103 ± 0.43.

Turning to LGPDSLHLFGMVGSGRLNIL, the amyloid nucleation score was -0.029 ± 0.88.

For KYIRISVDGIRFKEWCEFGS, the amyloid nucleation score was 0.777 ± 0.14.

Take LRLNDSSLRIPEAA: the amyloid nucleation score is -0.107 ± 0.44.

The substance QSGGVRVTNWRGNVTAT gave an amyloid nucleation score of 0.043 ± 0.39.

In the case of STCHRSSSTCWKGYVRGLVV, the amyloid nucleation score came to 0.004 ± 0.18.

Substance KDIEYCASMCESCPYMT showed an amyloid nucleation score of 2.86 ± 0.39.

For the substance VCKFNYL, the amyloid nucleation score was -0.769 ± 1.1.

For the substance VLGYSRPLSDTSSVGTIIPA, the amyloid nucleation score is 0.172 ± 0.38.

Regarding LCQGEKISPVKQHHVYCLGE, the amyloid nucleation score is 0.649 ± 0.85.

As to VLMLRSGWPQRRPHFG, the amyloid nucleation score was -0.301 ± 0.76.

As for SSYSYSDLRTRYIRITSQLD, the amyloid nucleation score is 0.203 ± 0.47.

As for GVFMKYQ, the amyloid nucleation score came out at 0.18 ± 1.2.

On to CFFEILLSMISTMPRNVKLR, for which the amyloid nucleation score is -0.28 ± 0.41.

For the substance GFCYM, the amyloid nucleation score came out at 0.997 ± 0.35.

Take SSESICFNIRGQDINRT: the amyloid nucleation score was -0.446 ± 0.37.

In turn, FNSRAICGEIVNIPHQSPGD gave an amyloid nucleation score of 1.16 ± 0.67.

For QLESMIYCVVSFYAAGVNFE, the amyloid nucleation score was -0.468 ± 1.9.

Turning to RYSLFIVSYCDGHRSSTRNM, the amyloid nucleation score entry was “inactive”.

The substance NWRSTLVSCLVYLPVLCCRC had an amyloid nucleation score of 5.31 ± 0.058.

As for PDSCIENLDMWYTFNGDNDT, the amyloid nucleation score is -0.828 ± 0.3.

As for NGFCEVDIVLFRVEVVAACV, the amyloid nucleation score was -0.965 ± 2.4.

For DDVGSTRYTTMGEACQGRPA, the amyloid nucleation score is -1.13 ± 0.8.

The substance FCLNLQYRSKMMHRANICL had an amyloid nucleation score of 0.159 ± 0.17.

SWATWLDMNG returned an amyloid nucleation score of 0.964 ± 0.76.

QPKFLVCFA returned an amyloid nucleation score of 0.101 ± 0.6.

For VLTTGTYFATVYIK, the amyloid nucleation score entry was “inactive”.

The substance YGQIPTFHRRSQVHLCNRIW showed an amyloid nucleation score of 0.206 ± 1.6.

The substance IGIPVLGMNINYCFLR gave an amyloid nucleation score of 0.931 ± 0.29.

The substance TRCCLFDRSSIYPSYCNEEA displayed an amyloid nucleation score of -0.123 ± 0.9.

WILPNNRMVFVLYTEQWWTF displayed an amyloid nucleation score of 2.33 ± 0.11.

In the case of IVIFPFFLVISDLYVVVSLG, the amyloid nucleation score is -0.077 ± 0.53.

With SHREMPSPIGMVSSSFMRVT, the amyloid nucleation score stood at 0.539 ± 0.9.

As for CTLILSQQFSSIPVHFILYM, the amyloid nucleation score turned out to be 4.4 ± 0.05.

Turning to WCCWVMCV, the amyloid nucleation score was 6.726 ± 0.061.

The substance LSGDIFRNHMNRFYL had an amyloid nucleation score of -0.071 ± 0.27.

SRLRCMEH yielded an amyloid nucleation score of 2.51 ± 0.15.

With DRYIREISNTATCFALLL, the amyloid nucleation score is 4.29 ± 0.083.

In turn, TCFEMLPLK had an amyloid nucleation score of 0.454 ± 0.5.

The substance GSVAFFNLNMLRVLYIIYER returned an amyloid nucleation score of 0.369 ± 0.36.

Substance VAQLFHWADLYNTSYYVSCV came in with an amyloid nucleation score of 3.38 ± 0.089.

RWCWWFFSSYAFFRSNISWV had an amyloid nucleation score of -0.197 ± 0.42.

In the case of LYSLGTSHEIPCLM, the amyloid nucleation score was determined as 0.442 ± 0.42.

Consider CNIVFSPGTDNVVEIRVRKL, for which the amyloid nucleation score worked out at 4.15 ± 0.062.

For VWTDGGSYFRDLNRICGV, the amyloid nucleation score is 3.74 ± 0.084.

In turn, KRSKN came in with an amyloid nucleation score of 1.37 ± 0.8.

Substance YYPNPMQPW returned an amyloid nucleation score of -0.526 ± 0.47.

In turn, QTGKRYGTFLGYDGLEGRPD came in with an amyloid nucleation score of -0.502 ± 0.55.

The substance VNYISHTQMKTR yielded an amyloid nucleation score of 0.913 ± 0.41.

LFSIGALY returned an amyloid nucleation score of -0.035 ± 0.2.

In the case of ARGYAGVRRLVGYR, the amyloid nucleation score was 0.133 ± 0.56.

RGSRTY had an amyloid nucleation score of 0.17 ± 0.53.

Take KWSPIAGSTMIMEMCH: the amyloid nucleation score is -1.08 ± 0.83.

The substance LWEIRILLL yielded an amyloid nucleation score of -0.994 ± 0.68.

Regarding FSHLKYNSVHFIPLRDFDSL, the amyloid nucleation score was 0.938 ± 0.41.
